B1: unnamed (protein)
chain 1: EVHLVESGGALVKPGGSLRLSCAASGFSFSKYGMSWVRQAPGKGLEWVATISSSGSRTYYPDSVKGRFTISRDNAKNTLYLQMNSLRAEDTAMYYCSISWDGAMDYWGQGTTVTVSS
chain 2: DVVMTQSPLSLPVTLGQPASISCKSSQSIVHSNGNTYLEWYLQKPGQSPQLLVYKVSNRFSGVPDRFSGSGSGTDFTLKISRVEAEDVGTYYCFQGSLVPWAFGGGTKVEIK
B2: unnamed (protein)
chain 1: QVQLQQSGPEVVKPGASVKMSCKASGYTFTSYVIHWVRQKPGQGLDWIGYINPYNDGTDYDEKFKGKATLTSDTSTSTAYMELSSLRSEDTAVYYCAREKDNYATGAWFAYWGQGTLVTVSS
chain 2: DIVMTQSPDSLAVSLGERVTMNCKSSQSLLYSTNQKNYLAWYQQKPGQSPKLLIYWASTRESGVPDRFSGSGSGTDFTLTISSVQAEDVAVYYCQQYYSYRTFGGGTKLEIK
B3: unnamed (protein)
chain 1: EVQLVQSGAEVKKPGESLKISCKGSGYSFSNYWIGWVRQMPGKGLEWMGIIDPSNSYTRYSPSFQGQVTISADKSISTAYLQWSSLKASDTAMYYCARWYYKPFDVWGQGTLVTVSS
chain 2: QSVLTQPPSVSGAPGQRVTISCTGSSSNIGSGYDVHWYQQLPGTAPKLLIYGNSKRPSGVPDRFSGSKSGTSASLAITGLQSEDEADYYCASWTDGLSLVVFGGGTKLTVL
B4: unnamed (protein)
chain 1: QAYLQQSGAELVRPGASVKMSCKASGYTFTSYNMHWVKQTPRQGLEWIGAIYPGNGDTSYNQKFKGKATLTVDKSSSTAYMQLSSLTSEDSAVYFCARVVYYSNSYWYFDVWGTGTTVTVSA
chain 2: QIVLSQSPAILSASPGEKVTMTCRASSSVSYMHWYQQKPGSSPKPWIYAPSNLASGVPARFSGSGSGTSYSLTISRVEAEDAATYYCQQWSFNPPTFGAGTKLELK
B5: unnamed (protein)
chain 1: EVQLLESGGGLVQPGGSLRLSCAASGFTFSSYAMNWVRQAPGKGLEWVSAITMSGITAYYTDDVKGRFTISRDNSKNTLYLQMNSLRAEDTAVYYCAKEEFLPGTHYYYGMDVWGQGTTVTVSS
chain 2: AIQMTQSPSSLSASVGDRVTITCRASQGIRNDLGWYQQKPGKAPKLLIYSASTLQSGVPSRFSGSGSGTDFTLTISSLQPEDFATYCLQDYNYPWTFGQGTKVEIK
B6: unnamed (protein)
chain 1: QVQLQESGPGLVKPSQTLSLTCSFSGFSLSTSGMGVGWIRQPSGKGLEWLAHIWWDGDESYNPSLKSRLTISKDTSKNQVSLKITSVTAADTAVYFCARNRYDPPWFVDWGQGTLVTVSS
chain 2: DIQMTQSTSSLSASVGDRVTITCRASQDISNYLSWYQQKPGKAVKLLIYYTSKLHSGVPSRFSGSGSGTDYTLTISSLQQEDFATYFCLQGKMLPWTFGQGTKLEIK

Test: patients with anti-drug antibodies; higher = more immunogenic

| Protein | patients with anti-drug antibodies [%] |
| --- | --- |
| B1 | 6.2 |
| B2 | 15 |
| B3 | 6 |
| B4 | 1.9 |
| B5 | 2.5 |
| B6 | 37 |

Reference: the FLAb antibody collection
